Laboratory results: the domain aggregation screens of Martell et al. (2025)

Assay: soluble fraction after stress (log2 fold change); higher = more stays soluble; pooled small domains, quantitative proteomics
Details: stress: 50 degC
How it was run: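 Pooled custom libraries of small protein domains were measured in a high-throughput format, with quantitative proteomics as the read-out. Each library was stressed at 50°C. Aggregation propensity is given as the base-two logarithm of the fold change in how much of each protein stays soluble after the stress. Higher values mean a larger share of the protein remains in solution.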

Sequence	soluble fraction (log2)
HMFETLVLALAQAWPAERGPVEALQFEGGRLSLQRSGFADEQVEALRQRLSSEGWTLQTEQGRLILNKAG	-0.884
HMKLVTIPNVIGKTKEDAMKTLKDLGVTVTVETKESEKDDGTVIAQSKAEGTKLTAGENVTITVSKKKK	0.139
HMQDQVTLIVQVNGKLRGQISISTDATKELIEQTALANENVQKFVDGQSIKKIIIVPGRLVNIV	-1.12
HMNTLLGLSNSFQDNKDLENANSISRRFISYRPRSEAELRIRLLKVFSHEIVLESVAQMYREGLLNDQRF	-3.33
HMGKVNTRNRNEGKFYKNGKKKPANWEYRFEAAPVNGKRQQISDAGYPTEKAAYEAGIAAYEKYNSAGSVN	0.0482
HMVMVVDVLKALSNNSSDKFFNTSISNAIKAQEDSQEDFVTLFGIEYEKLSPNNGLAVIFTSQ	0.425
HMGGKTAVVTGSLVNVRKGPGTGNALVGQVARGDELPVLGQDGDWYQIKLANGSNGWVAGWLVSLKDAVP	0.432
HMAQLTPREREVLVLIAEGKSNKEIADQLNIGVRTIETHRERIMRRLNIHSVAGLTKYAIANGLVTL	0.116
HMGEKTVPNVIGQKLATAKQLLEKEGLTVGSTSYNKNQADKDTVLSTDPAPGSHLSEGAKVNLTLSSGA	0.261
HMGKVTILSNPVKDALVIMGLHNAETIDVRLFDNTGRLVMQGSQSRMDISSLSPGLYILQVNGKILKVIK	-2.21
HMTSMNNTEELIDMANKIIDNNPNMVLKYKEGRNVLDFFIGQVMKETKGRANPSATSKIFKDLLEK	0.169
HMSETQDQTTIEIEDMITVGTLAERLSIPVSTLIGELMKNGVMATVNEKIDFDTAQIIVGELKLPIELSKK	0.201
HMPVPSPAEQTATQLANIERHTGITVDGWTRAIAEAGAAKHGEIVAWLKQQGLTHGNANALAHAVRARQSG	0.27
HMIDQNEDLLSGYIDEVLSQNPDKVNEYLKGKSGLIGFFMGQIKQKSATALDAALLKSQLETALEKLRIK	0.059
HMVREVGYNAFLAMLDSGAVKEVARDESEGQITFLATDEKGKERVYKTGIWPDDTLTERLNTAGVEFA	0.178
HMNNNIFVYPNPSINYINIDSDEEIWKLEIIQMSGEKINILPFSKRIDISFLSKGLYILNFNNYYIKFIK	-0.187
HMHTDDDGITEAFPHLRLLSLGEDILDLLEKSRFIRKLNNELVYYVVDFREQNSIDGRRYHPSIYHNL	-0.258
HMSMFTPAQVAQTLTVPPSTLRRWAKRFAPFLSPQSGKKRTYTVADLDTFQRIKELSAQGYTFAQIDQAL	-0.738
HMSMLSQERQSLILDIIKEQGSVTVTRLTEILQSSESTVRRDLSYLASKGKINKVHGGATALG	-0.206
HMGVRVEVDAVTPPGAMASGSVVFSDGESKKWSVDQFGRLAMTGGAPDYKPSDQDVMEFQQQLEQSL	0.054
HMNTKLSYSDLIEKIEAGQVEKVELDAGGSSAIVKLKNDNIEKRVNVPSIDNLMENLQDNMKTGNISVTE	0.42
HMREWPLWEIFIRGQHGLNHRHVGSLHAPDAAMAIGNARDVYTRRNEGVSIWAVRSADVVASVPSE	-2.33
HMKDEGSLKVIGQMVVIGIPQSEAKRFANTYTVAQIRAALQYTQKRSEDKNASKLENVAAYFRQALVRNWG	-1.36

Sequence	soluble fraction (log2)
HMSSTSTKTQNIVHIVKSGETLSAIASKYGVSVDNIKKWNNLSSDKLSIGQKLKINPTTQTSS	0.245
HMQMSWDAVKARLQDIVNNEDKTKPFNDEMLASKLKEQGIEIARRTVVKYRQQLGIPAARLRKK	-0.468
HMETLKEMDSKGAINASEVNVREGAGTSSSKMYSLSKGASVDVTGIKGDWYRVHTSKGTGYVLAKYVTLVS	-0.0779
HMQMSPREKMIYSFIESHPGTKSGEIAEKLNVPLPTVKRILSEMVSGNFIAKHGSGIGTNYSTEK	0.233
HMIDEQDLKKYILISTSVEELTDYLGATDRMLYDYLYSLKHVGQYWQLNERFLLDLYKLPNLVIVDKEDLE	-0.136
HMENFSTLFSRLKEERGLSNKQISSFTGAPIKEVKKWESGMGIPTEKRIVAALEGILGSEISKAI	-0.0124
HMDIFGREAEVEQILQEVRFGDDPHYRLSIGILPVTGHAGAGKTALVRFIFHHEVARAEFTVRMWVHV	0.106
HMDEDTWKLYKRAYKKYYARYMKGNMSEAAFKAWGEQAAADRDAAIEQLRATTDAALSASIIQQLKEKLNR	-0.581
HMFQEGLVAPPAYTRPESFRGWEVPEILRSGNFPAIAKWQHEESLRLTRERRPAMLEAYERRT	0.121
HMSKPLEVFKLTSEPFGFSFNTALGRSYTVEATGDLGVWKAVELFQGSGGEIRFTAKPTSSGGAQFFRVFV	-0.0927
HMQNNITISKEIELRTGPDDTYPTLKKVTAGDNVEMLSKSDTWYEIKTNDSFVGWVPGWSIL	0.0818
HMEQNTKAYEQVRTLTDLLNQYRHEYYNLSAPSVSDQEYDRLFDALAALEKQTGIVMSNSPTQTVG	0.0359
HMEIDDPWLILGINAGSSIEIAQKAWKDLASQNHPDKLIANGVPKELLGMANEKLAIINGAYDKILKAHKI	-0.262
HMSENMSQDLAQWYRLQQALHPNLDAPELWATDLTSQQRTVRDQLIQQWAQEKRDSLWSEISGD	0.0433
HMVQQTEEDVIRDMYVEGKIFTIGEEVTDTYTGVTGKIIRRGTNYVTFMSEDGETYKKWLYEIELA	-1
HMESIAEIDRMNAKIFMDEFQDSLSIMQKTTNPETFFSRYDLAMERLDNMVELQQKGIKFTSDLSSLKAQ	0.0074
HMHDYTTIIGVIELRLNKISYDNVQKRYRIGRSGISLIMERYRDSGLSLDDLKQMPAEKVVNLIYPKD	-0.954
HMQYDESSQLGERFLNQALNALKADPDKVGDAQWEKLLKENSAKSRQEVLADIGLGKQLAIVIARELLS	-0.115
HMFDPTDLPEKQLMVYEIIKSNNGINMTNIASLLGFNKTTVDNAIRALKKKEIVVFKGTNRSGGYFNT	-1.66
HMTIGLLISKARTNSGLTQAELATRAGTSQAAIARYESDRVSPSVSTLERVLRAAGEELVISSS	-0.0977
HMYINVQNARTIASFRSSLWRMHRDFTNQGYITADGLKTFLEMGKLYEDAGGNDIYHSKLLPEITALEIKY	-0.76
HMSFPLKRGSKGNRVTQLQNALVKKFGASILPKYGVDGMFGKEVEAALVRAKLPTSINESTYNSFV	0.12
HMGELTNALATLSERERDVARLVAQGLDNRQIAAQLFLSEGTVRNRISDILDKLALTNRTQLAIAWLHAE	-0.588

Sequence	soluble fraction (log2)
HMNPNYIKKLREKNQLTQEYLAAQIGVSRPTYAQIEQGQRGLTVTEAKKMADIFSLALDDFLAEKN	0.0013
HMDEWDPAILYVGLDYEDAAQIATRLATSGVPYRLSPDGTMITVPDDQVNNMRLTLAGEGFPH	-0.0702
HMKFNLWLSEKLKKLGLTQRKLAEQAGVSPATVSRWLSGEFEPDLTNLRKINQVLGVPERELFLQLGL	0.154
HMTGINMSYEEYKAMADIIVPLIKAGHSPYHIVTNHPELNISEKTLYNYIENGIFREFGLLDINL	-0.313
HMEYTVNRLAQISGVSKRTLRYYDEIGLLRPERVNPNGYRIYGQMQVDLLQQILFYRELGLPLEEIREII	-0.467
HMVVGYRYVTNVANAVNFRQKPSASSTIITTIPYGTRIGYVEDANSEYARVKYDNMYGYVAKFYLSNYSPP	-3.27
HMESSYKGFILDIETRQFSPTLIQRRGIAINPSGIVETTTEFSFATQEKVLIEDLKLIIDELDLRADY	-4.07
HMEWVVVPDVRRQLLPEAQRRVNKARLRLEVAGGWPAEPLLAMVVDQKPGPETRVPLNSIVVVVVRNLP	-0.0473
HMTELLTPKQRQVFELALREGYYDVPRRTSITEMARLLGVAKSTLSAQMHRMEATVMSTFAEEIRKQ	-1.74
HMLRVVSTRQAFDIVRGWADAHPQDPEHNKTLDELEELAKKEVWDDWSRTNEIAERLNALLVSIGANVRTA	-0.742
HMGNLASRVAEQLLDKMRGDSLVPGTRLPSEIAMAKHFGVSRTVMREAIARLKADGLLETRRGSGAFVLAT	-0.664
HMEPLVSKVFQVSYQKTADLVALIKSEDSKLLSARGTLISDERTSQIFVQDTPTRLERISMIVNGL	-0.883
HMETSLVIQIDGAVNSPGIYQVTPGTRIFEALELAGGVREDAQTEALNLALPVYDGQRISIPSSFA	0.0796
HMLDEKFLSELMLALLRNHRRGLRAEVLLHKVRSNMELDGYKSLLVGVGRMEMWELAREIIDFVKAEG	-4.4
HMRAEELEQFVERLKNEVMNNFPLKELSDNELREKIENLVEIRLANVYVSIEQRVAIAEQIYSSIR	-0.0429
HMELGWYVRLRRRELGLSVTALAEKAGMSQSYLSQIETGDRGNPSPESLRSLAEALEVSPRELESLV	-0.331
HMEQEVLDLLFDAIRSLPEKYRRLFDMSFEQGLKNAEIAALLHVSESAVKKQKASMIQQLRDDLLRKTGKD	-0.693
HMETLYGQIVNDIMEKIESNAWPVGYVIPTESDFQKQYGVSRATVRNAILKLAHLGYLVRKKGSGTYVTRP	-0.975
HMVEMIGLQMVGKSGIASTVLRPSGKVRIDGVVYDAVSEDGFIEKGQAVKVLRYETGQVYVEKL	-0.254
HMTPTVEAAKEEVLRVLASAAPRGLTRTELEAEVSFRRTKLRDTLVELERIGRIDSVGRRGNATTYRLIG	-0.615
HMFNISEKLKKYRNALGLTQTEVAEKIEITKPTYASYEKGKDISIGTLKKLADLFEVSFESFFSE	-0.168
HMISESLLDEIPGLGETRRNSLLREFGSVAMIRKASAEEIASRVRGIGAEFAAAIHDFLQTH	-0.0611
